Values joined by “and” are separate entries in the source; they are usually repeats but may differ in a detail not shown here. Identical values can stand only once.
Tests used:
[1] = molecular target: T1, human NKG2D (hNKG2D) on the cell surface (human, UniProt P26718 1-216); assay: flow cytometry blocking assay on NKG2D/DAP10-expressing BaF/3 cells: pre-incubation with the antibody, then 1 µg MICA-mFc; y axis % remaining MICA-Fc binding
T1 construct: Carried by BaF/3 cells co-transfected with full-length NKG2D and DAP10, or naturally by human NK, CD8+ T and gamma-delta T cells (PBMC, whole blood); also called cell-surface NKG2D; NKG2D- and DAP10-expressing BaF/3 cells
T1 chain: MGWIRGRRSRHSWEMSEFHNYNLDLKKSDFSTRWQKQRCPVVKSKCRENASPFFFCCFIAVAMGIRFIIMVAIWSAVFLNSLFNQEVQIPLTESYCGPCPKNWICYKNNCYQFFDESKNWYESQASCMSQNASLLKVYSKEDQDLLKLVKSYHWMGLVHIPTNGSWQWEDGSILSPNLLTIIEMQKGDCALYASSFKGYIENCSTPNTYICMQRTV
Method: (§1) Flow cytometry assays—MICA blockade. […] The cells were then analysed on a B&D FACSArray flow cytometer. The degree of reduction of MICA binding by preincubation was analysed as MFI (mean fluorescence intensity) of binding with pre-incubation in % of binding of MICA without preincubation.

[2] = molecular target: T1, human NKG2D (hNKG2D) on the cell surface; assay: flow cytometry, NKG2D/DAP10 BaF/3 cells pre-incubated with antibody, then 1 µg MICA-mFc (competitor)
Method: as §1

[3] = molecular target: T2, rhesus monkey NKG2D on NK and CD8+ T cells (rhesus monkey (Macaca mulatta), UniProt Q9MZJ7 1-216); assay: flow cytometry on rhesus PBMC, NK cells gated; the legend names 16F16 purified from the original hybridoma
T2 construct: whole, on cells; Target on rhesus PBMC; also called rhesus NKG2D
T2 sequence (looked up): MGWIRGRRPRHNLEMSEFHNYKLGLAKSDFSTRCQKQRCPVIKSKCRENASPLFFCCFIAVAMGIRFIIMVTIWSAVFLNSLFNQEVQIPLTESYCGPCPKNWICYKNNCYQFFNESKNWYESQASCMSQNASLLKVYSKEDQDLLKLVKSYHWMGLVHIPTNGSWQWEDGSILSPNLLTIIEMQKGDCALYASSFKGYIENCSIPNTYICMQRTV
Method: (§2) Flow cytometry assay—man and monkey PBMC. Perifieral blood mononuclear cells (PMBCs) were isolated from humans, or from Cynomologous or Rhesus monkey. All animal work were performed according to Danish National Research Council guidelines.

[4] = molecular target: T3, cynomolgous monkey NKG2D on NK, CD8+ T and gamma-delta T cells (cynomolgous monkey (Macaca fascicularis), UniProt P61252 1-216); assay: flow cytometry on cynomolgous PBMC, NK cells gated; the legend names 16F16 purified from the original hybridoma
T3 construct: whole, on cells; Target on cynomolgous PBMC and whole blood cells; also called cynomologous NKG2D; cyno NKG2D
T3 sequence (looked up): T2 sequence (looked up)
Method: as §2

[5] = molecular target: T4, recombinant NKG2D-Fc protein (R&D Systems), immobilized on a Biacore CM5 chip (human, UniProt P26718 78-216); assay: SPR (Biacore), NKG2D-Fc immobilized on CM5 chip at 1200 RU, antibody in solution, Langmuir fit
T4 construct: also called NKG2D-hFc; hFc-NKG2D; not shown: Fc portion of the purchased fusion protein
T4 sequence: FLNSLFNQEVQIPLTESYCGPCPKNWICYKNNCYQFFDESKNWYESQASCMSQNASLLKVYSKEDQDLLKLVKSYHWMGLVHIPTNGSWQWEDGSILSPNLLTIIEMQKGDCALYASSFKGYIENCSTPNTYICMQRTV
Method: Protein immobilisation. […] Recombinant NKG2D-Fc proteins were immobilized covalently to carboxyl groups in the dextran layer on a Sensor Chip CM5 (Biacore GE Healthcare; BR-1000-14). The sensor chip surface was activated with EDC/NHS (N-ethyl-N′-(3-dimethylaminopropyl)carbodiimidehydrochloride and N-hydroxysuccinimide (Biacore GE Healthcare; BR-1000-50)). […] Deactivation of the remaining activated groups was performed using 100 mM ethanolamine pH 8 (Biacore GE Healthcare; BR-1000-50).
[…] The resulting sensorgrams were analysed by global fitting using the Langmuir model. The dissociation constant (KD) was calculated as KD=kd/ka.

[6] = molecular target: T1, human NKG2D (hNKG2D) on the cell surface; assay: flow cytometry, dose-response on NKG2D- and DAP10-expressing BaF/3 cells

B1: 16F16, fully human anti-hNKG2D monoclonal antibody, recombinantly expressed as IgG4 isotype (antibody, V domains shown)
VH: EVQLVESGGGLVKPGGSLRLSCAASGFTFSSYSMNWVRQAPGKGLEWVSSITSSSSYIYYADSVKGRFTISRDNAKNSLYLQMNSLRAEDTAVYYCARDRRYFDWFPLDYRGQGTLVTVSS
VL: DIQMTQSPSSLSASVGDRVTITCRASQGISSWLAWYQQKPEKAPKSLIYAASSLQSGVPSRFSGSGSGTDFTLTISSLQPEDFATYYCQQYNGYPYTFGQGTKLEIKR
notes: also called 16F16 IgG4; 16F16 (IgG4)
IC50 (read off the curve) [1]: ~20 pM | Full blockade of 1 µg MICA-Fc (antibody concentration) [2]: 0.59 µg/mL | IC50 [2]: 0.019 µg/mL | binding result [3]: binds | binding result [4]: binds | Kd [5]: 178 pM | EC50 [6]: 0.051 µg/mL and ~0.34 nM

— patent publication US20100056764A1 (Novo Nordisk, published 2010)
